Data as given in patent US20180155451A1 (published 2018).

T1: FcγRIIb extracellular domain with C-terminal His tag (human, UniProt P31994 43-217)
T1 construct: extracellular domain; also called FcgRIIb; 2b; not shown: His tag at the C terminus
T1 sequence (looked up): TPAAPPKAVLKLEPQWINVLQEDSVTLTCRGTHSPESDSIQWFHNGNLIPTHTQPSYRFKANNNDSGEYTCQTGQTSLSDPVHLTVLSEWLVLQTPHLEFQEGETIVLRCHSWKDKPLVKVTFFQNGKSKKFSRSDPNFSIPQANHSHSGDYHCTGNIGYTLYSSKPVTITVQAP

T2: FcγRIIa R (human FcγRIIa, allotype R, Arg at position 131), extracellular domain with C-terminal His tag (human, UniProt P12318 34-217)
T2 construct: extracellular domain; expressed in FreeStyle293 cells; analyte in Biacore; also called 2aR; FcgRIIa R
T2 sequence (looked up): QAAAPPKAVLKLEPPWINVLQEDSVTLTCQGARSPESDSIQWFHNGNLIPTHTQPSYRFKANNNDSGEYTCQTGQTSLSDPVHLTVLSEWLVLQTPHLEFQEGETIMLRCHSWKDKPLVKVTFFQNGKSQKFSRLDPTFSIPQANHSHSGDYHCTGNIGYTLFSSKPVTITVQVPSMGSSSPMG


Legend:
[1] = target: T3, FcγRIIIa extracellular domain with C-terminal His tag (human, UniProt P08637 17-208); assay: SPR (Biacore); ratio of He/Con_3a (FcγRIIIa) to He/Con_2b (FcγRIIb)
T3 construct: extracellular domain; also called FcgRIIIa; 3a; not shown: His tag at the C terminus
Method in brief: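 SPR, 25 °C, HBS-EP+. Ab captured via immobilized antigen peptide (CM5 amine coupling or SA biotin); FcγR injected as analyte. Regen: 10 mM glycine-HCl pH 1.5.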

[2] = target: T3, FcγRIIIa extracellular domain with …; assay: SPR (Biacore), antibody captured, FcγR as analyte; He Ab binding / GpH7-A5/GpH7-B3/GpL16-k0 binding x 100
[3] = target: T1, FcγRIIb extracellular domain with …; assay: as above
[4] = target: T2, FcγRIIa R (human FcγRIIa, allotype R, …); assay: SPR (Biacore), relative binding vs GpH7-A5/GpH7-B3/GpL16-k0
Protocol: Analysis of interaction between objective antibody and the FcγR was carried out using Biacore T100 (GE Healthcare). HBS-EP+ (GE Healthcare) was used as the running buffer, and the measurement temperature was set to 25° C. Chips produced by immobilizing the antigen peptide by the amine coupling method to a Series S Sencor Chip CM5 (GE Healthcare), or alternatively, chips produced by allowing preliminarily biotinylated antigen peptides to interact with and immobilize onto a Series S Sensor Chip SA (certified) (GE Healthcare) were used. Antibodies of interest were captured onto an antigen peptide-immobilized chip, and allowed to interact to each FcγR diluted with running buffer. To regenerate and repeatedly use the chip, the antibodies captured on the chip were washed off by reacting 10 mM glycine-HCl, pH 1.5.
The FcγR-binding activity of each antibody was assessed primarily using as an indicator the FcγR-binding activity and dissociation constant for FcγR.

T3 sequence (P08637 17-208): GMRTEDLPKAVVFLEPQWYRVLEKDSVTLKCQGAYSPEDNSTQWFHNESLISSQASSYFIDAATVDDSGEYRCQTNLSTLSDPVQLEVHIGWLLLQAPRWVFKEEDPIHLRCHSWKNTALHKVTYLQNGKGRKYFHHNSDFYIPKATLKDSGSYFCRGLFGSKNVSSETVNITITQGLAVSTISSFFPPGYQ

Row | Binder | He_3a/2b (IIIa/IIb) [1] | He/Con_3a (IIIa binding) [2] | He/Con_2b (IIb binding) [3] | He/Con_2aR [4]
1 | GpH7-A5/GpH7-B3 variant S324_02A/GpL16-k0 (antibody, human IgG1, kappa, position is EU numbering; also called He Ab) heavy 1: not shown heavy 2: not shown light: DIVMTQSPLSLPVTPGEPASISCQASESLVHSNRNTYLHWYLQKPGQSPQLLIYKVSNRFSGVPDRFSGSGSGTDFTLKISRVEAEDVGVYYCSQNTHVPPTFGQGTKVEIERTVAAPSVFIFPPSDEQLKSGTASVVCLLNNFYPREAKVQWKVDNALQSGNSQESVTEQDSKDSTYSLSSTLTLSKADYEKHKVYACEVTHQGLSSPVTKSFNRGEC | 1.33 ratio | 104 relative, control = 100 | 78.3 relative, control = 100 | –
2 | GpH7-A5/GpH7-B3 variant P331_08L/GpL16-k0 (antibody, human IgG1, kappa, heterodimerized antibody, mutation in one H chain only; also called He Ab) heavy 1: not shown heavy 2: not shown light: DIVMTQSPLSLPVTPGEPASISCQASESLVHSNRNTYLHWYLQKPGQSPQLLIYKVSNRFSGVPDRFSGSGSGTDFTLKISRVEAEDVGVYYCSQNTHVPPTFGQGTKVEIERTVAAPSVFIFPPSDEQLKSGTASVVCLLNNFYPREAKVQWKVDNALQSGNSQESVTEQDSKDSTYSLSSTLTLSKADYEKHKVYACEVTHQGLSSPVTKSFNRGEC | – | – | – | 102 relative, control = 100
3 | GpH7-A5/GpH7-B3 variant S324_11K/GpL16-k0 (antibody, human IgG1, kappa, position is EU numbering; also called He Ab) heavy 1: not shown heavy 2: not shown light: DIVMTQSPLSLPVTPGEPASISCQASESLVHSNRNTYLHWYLQKPGQSPQLLIYKVSNRFSGVPDRFSGSGSGTDFTLKISRVEAEDVGVYYCSQNTHVPPTFGQGTKVEIERTVAAPSVFIFPPSDEQLKSGTASVVCLLNNFYPREAKVQWKVDNALQSGNSQESVTEQDSKDSTYSLSSTLTLSKADYEKHKVYACEVTHQGLSSPVTKSFNRGEC | 1.21 ratio | 83 relative, control = 100 | 68.6 relative, control = 100 | –
4 | GpH7-A5/GpH7-B3 variant P331_07I/GpL16-k0 (antibody, human IgG1, kappa, heterodimerized antibody, mutation in one H chain only; also called He Ab) heavy 1: not shown heavy 2: not shown light: DIVMTQSPLSLPVTPGEPASISCQASESLVHSNRNTYLHWYLQKPGQSPQLLIYKVSNRFSGVPDRFSGSGSGTDFTLKISRVEAEDVGVYYCSQNTHVPPTFGQGTKVEIERTVAAPSVFIFPPSDEQLKSGTASVVCLLNNFYPREAKVQWKVDNALQSGNSQESVTEQDSKDSTYSLSSTLTLSKADYEKHKVYACEVTHQGLSSPVTKSFNRGEC | – | – | – | 110 relative, control = 100
5 | GpH7-A5/GpH7-B3 variant Y300_01G/GpL16-k0 (antibody, human IgG1, kappa, position is EU numbering; also called He Ab) heavy 1: not shown heavy 2: not shown light: DIVMTQSPLSLPVTPGEPASISCQASESLVHSNRNTYLHWYLQKPGQSPQLLIYKVSNRFSGVPDRFSGSGSGTDFTLKISRVEAEDVGVYYCSQNTHVPPTFGQGTKVEIERTVAAPSVFIFPPSDEQLKSGTASVVCLLNNFYPREAKVQWKVDNALQSGNSQESVTEQDSKDSTYSLSSTLTLSKADYEKHKVYACEVTHQGLSSPVTKSFNRGEC | 1.69 ratio | 81.6 relative, control = 100 | 48.4 relative, control = 100 | –
6 | GpH7-A5/GpH7-B3 variant Y300_13S/GpL16-k0 (antibody, human IgG1, kappa, position is EU numbering; also called He Ab) heavy 1: not shown heavy 2: not shown light: DIVMTQSPLSLPVTPGEPASISCQASESLVHSNRNTYLHWYLQKPGQSPQLLIYKVSNRFSGVPDRFSGSGSGTDFTLKISRVEAEDVGVYYCSQNTHVPPTFGQGTKVEIERTVAAPSVFIFPPSDEQLKSGTASVVCLLNNFYPREAKVQWKVDNALQSGNSQESVTEQDSKDSTYSLSSTLTLSKADYEKHKVYACEVTHQGLSSPVTKSFNRGEC | 1.37 ratio | 73.9 relative, control = 100 | 53.9 relative, control = 100 | –
7 | GpH7-A5/GpH7-B3 variant Y296_20W/GpL16-k0 (antibody, human IgG1, kappa, position is EU numbering; also called He Ab) heavy 1: not shown heavy 2: not shown light: DIVMTQSPLSLPVTPGEPASISCQASESLVHSNRNTYLHWYLQKPGQSPQLLIYKVSNRFSGVPDRFSGSGSGTDFTLKISRVEAEDVGVYYCSQNTHVPPTFGQGTKVEIERTVAAPSVFIFPPSDEQLKSGTASVVCLLNNFYPREAKVQWKVDNALQSGNSQESVTEQDSKDSTYSLSSTLTLSKADYEKHKVYACEVTHQGLSSPVTKSFNRGEC | 1.31 ratio | 135 relative, control = 100 | 103 relative, control = 100 | –
8 | GpH7-A5/GpH7-B3 variant S324_12R/GpL16-k0 (antibody, human IgG1, kappa, position is EU numbering; also called He Ab) heavy 1: not shown heavy 2: not shown light: DIVMTQSPLSLPVTPGEPASISCQASESLVHSNRNTYLHWYLQKPGQSPQLLIYKVSNRFSGVPDRFSGSGSGTDFTLKISRVEAEDVGVYYCSQNTHVPPTFGQGTKVEIERTVAAPSVFIFPPSDEQLKSGTASVVCLLNNFYPREAKVQWKVDNALQSGNSQESVTEQDSKDSTYSLSSTLTLSKADYEKHKVYACEVTHQGLSSPVTKSFNRGEC | 1.43 ratio | 90.3 relative, control = 100 | 63.1 relative, control = 100 | –

Further lines, results first:

Row | He_3a/2b (IIIa/IIb) [1] | He/Con_3a (IIIa binding) [2] | He/Con_2b (IIb binding) [3] | He/Con_2aR [4] | Binder
9 | 1.28 ratio | 99.3 relative, control = 100 | 77.4 relative, control = 100 | – | GpH7-A5/GpH7-B3 variant S324_10E/GpL16-k0 (antibody, human IgG1, kappa, position is EU numbering; also called He Ab) heavy 1: not shown heavy 2: not shown light: DIVMTQSPLSLPVTPGEPASISCQASESLVHSNRNTYLHWYLQKPGQSPQLLIYKVSNRFSGVPDRFSGSGSGTDFTLKISRVEAEDVGVYYCSQNTHVPPTFGQGTKVEIERTVAAPSVFIFPPSDEQLKSGTASVVCLLNNFYPREAKVQWKVDNALQSGNSQESVTEQDSKDSTYSLSSTLTLSKADYEKHKVYACEVTHQGLSSPVTKSFNRGEC
10 | 1.33 ratio | 88.5 relative, control = 100 | 66.8 relative, control = 100 | – | GpH7-A5/GpH7-B3 variant S324_19Q/GpL16-k0 (antibody, human IgG1, kappa, position is EU numbering; also called He Ab) heavy 1: not shown heavy 2: not shown light: DIVMTQSPLSLPVTPGEPASISCQASESLVHSNRNTYLHWYLQKPGQSPQLLIYKVSNRFSGVPDRFSGSGSGTDFTLKISRVEAEDVGVYYCSQNTHVPPTFGQGTKVEIERTVAAPSVFIFPPSDEQLKSGTASVVCLLNNFYPREAKVQWKVDNALQSGNSQESVTEQDSKDSTYSLSSTLTLSKADYEKHKVYACEVTHQGLSSPVTKSFNRGEC
11 | 1.43 ratio | 105 relative, control = 100 | 73.6 relative, control = 100 | – | GpH7-A5/GpH7-B3 variant Y300_08L/GpL16-k0 (antibody, human IgG1, kappa, position is EU numbering; also called He Ab) heavy 1: not shown heavy 2: not shown light: DIVMTQSPLSLPVTPGEPASISCQASESLVHSNRNTYLHWYLQKPGQSPQLLIYKVSNRFSGVPDRFSGSGSGTDFTLKISRVEAEDVGVYYCSQNTHVPPTFGQGTKVEIERTVAAPSVFIFPPSDEQLKSGTASVVCLLNNFYPREAKVQWKVDNALQSGNSQESVTEQDSKDSTYSLSSTLTLSKADYEKHKVYACEVTHQGLSSPVTKSFNRGEC
12 | 1.53 ratio | 85.4 relative, control = 100 | 55.6 relative, control = 100 | – | GpH7-A5/GpH7-B3 variant Y300_14T/GpL16-k0 (antibody, human IgG1, kappa, position is EU numbering; also called He Ab) heavy 1: not shown heavy 2: not shown light: DIVMTQSPLSLPVTPGEPASISCQASESLVHSNRNTYLHWYLQKPGQSPQLLIYKVSNRFSGVPDRFSGSGSGTDFTLKISRVEAEDVGVYYCSQNTHVPPTFGQGTKVEIERTVAAPSVFIFPPSDEQLKSGTASVVCLLNNFYPREAKVQWKVDNALQSGNSQESVTEQDSKDSTYSLSSTLTLSKADYEKHKVYACEVTHQGLSSPVTKSFNRGEC
13 | 1.24 ratio | 104 relative, control = 100 | 83.5 relative, control = 100 | – | GpH7-A5/GpH7-B3 variant S324_16H/GpL16-k0 (antibody, human IgG1, kappa, position is EU numbering; also called He Ab) heavy 1: not shown heavy 2: not shown light: DIVMTQSPLSLPVTPGEPASISCQASESLVHSNRNTYLHWYLQKPGQSPQLLIYKVSNRFSGVPDRFSGSGSGTDFTLKISRVEAEDVGVYYCSQNTHVPPTFGQGTKVEIERTVAAPSVFIFPPSDEQLKSGTASVVCLLNNFYPREAKVQWKVDNALQSGNSQESVTEQDSKDSTYSLSSTLTLSKADYEKHKVYACEVTHQGLSSPVTKSFNRGEC
14 | 1.28 ratio | 95.1 relative, control = 100 | 74.5 relative, control = 100 | – | GpH7-A5/GpH7-B3 variant Y300_07I/GpL16-k0 (antibody, human IgG1, kappa, position is EU numbering; also called He Ab) heavy 1: not shown heavy 2: not shown light: DIVMTQSPLSLPVTPGEPASISCQASESLVHSNRNTYLHWYLQKPGQSPQLLIYKVSNRFSGVPDRFSGSGSGTDFTLKISRVEAEDVGVYYCSQNTHVPPTFGQGTKVEIERTVAAPSVFIFPPSDEQLKSGTASVVCLLNNFYPREAKVQWKVDNALQSGNSQESVTEQDSKDSTYSLSSTLTLSKADYEKHKVYACEVTHQGLSSPVTKSFNRGEC
15 | – | – | – | 106 relative, control = 100 | GpH7-A5/GpH7-B3 variant P331_06M/GpL16-k0 (antibody, human IgG1, kappa, heterodimerized antibody, mutation in one H chain only; also called He Ab) heavy 1: not shown heavy 2: not shown light: DIVMTQSPLSLPVTPGEPASISCQASESLVHSNRNTYLHWYLQKPGQSPQLLIYKVSNRFSGVPDRFSGSGSGTDFTLKISRVEAEDVGVYYCSQNTHVPPTFGQGTKVEIERTVAAPSVFIFPPSDEQLKSGTASVVCLLNNFYPREAKVQWKVDNALQSGNSQESVTEQDSKDSTYSLSSTLTLSKADYEKHKVYACEVTHQGLSSPVTKSFNRGEC
